Measurements reported in doi:10.1101/869123.

Assays:
[1] = target: CRIPT^L4 (CRIPT mutants with substitutions to any of the last four cysteines), co-IP from mitotic HeLa cells; assay: co-IP
[2] = target: CRIPT^S4 (CRIPT mutants with substitutions to any of the first four cysteines), co-IP from mitotic HeLa cells; assay: co-IP

Substance	fold of tubulin brought down relative to wild-type CRIPT [1] [fold]	fold of tubulin brought down relative to wild-type CRIPT [2] [fold]
α-tubulin, endogenous, mitotic HeLa cells (from UniProt P68363 1-451) (natural protein)	> 2	> 2
β-tubulin, endogenous, mitotic HeLa cells (from UniProt P07437 1-444) (natural protein)	> 2	> 2
